Measured values taken from publication PMC3887258.

How the values were obtained:
[1] = molecular target: Human metapneumovirus matrix protein (M), untagged (human metapneumovirus, strain NL1-00); assay: crystal structure; 2.8 Å, space group P3_(1); crystals from 20% PEG 6000, 100 mM Tris pH 8.0, 10 mM zinc chloride, 20°C; mixture of intact and proteolysed untagged M
[2] = molecular target: Human metapneumovirus matrix protein (M), untagged (human metapneumovirus, strain NL1-00); assay: negative-stain electron microscopy, 2D class averages; free M in samples of 7.2 μM M incubated with 400 μM DOPC for 7 days at 37°C; 2% uranyl acetate
[3] = molecular target: Human metapneumovirus matrix protein (M), untagged (human metapneumovirus, strain NL1-00); assay: SAXS; untagged M in 1 M NaCl buffer, or as 9:1 mixture with SUMO-3C-M in 1 M NDSB-201 buffer; 1 to 4 mg/ml; 20°C, BM29 ESRF; fitted with MD-based ensemble optimisation

Measured: stoichiometry N

Human metapneumovirus matrix protein (M), untagged (natural protein)
2: all assays above
